From US20110117021A1 (BIOTIE THERAPIES, published 2011)
Substitutions are numbered along the chain they refer to.

What was measured:
[1] = target: T1, recombinant human Vascular Adhesion Protein-1 (rhVAP-1), purified from CHO cells (human, UniProt Q16853 1-763, limits assumed); assay: time-resolved immunofluorometric assay, plate coated with rhVAP-1, europium-conjugated anti-human antibody detection
T1 construct: also called recombinant human VAP-1
T1 sequence (looked up): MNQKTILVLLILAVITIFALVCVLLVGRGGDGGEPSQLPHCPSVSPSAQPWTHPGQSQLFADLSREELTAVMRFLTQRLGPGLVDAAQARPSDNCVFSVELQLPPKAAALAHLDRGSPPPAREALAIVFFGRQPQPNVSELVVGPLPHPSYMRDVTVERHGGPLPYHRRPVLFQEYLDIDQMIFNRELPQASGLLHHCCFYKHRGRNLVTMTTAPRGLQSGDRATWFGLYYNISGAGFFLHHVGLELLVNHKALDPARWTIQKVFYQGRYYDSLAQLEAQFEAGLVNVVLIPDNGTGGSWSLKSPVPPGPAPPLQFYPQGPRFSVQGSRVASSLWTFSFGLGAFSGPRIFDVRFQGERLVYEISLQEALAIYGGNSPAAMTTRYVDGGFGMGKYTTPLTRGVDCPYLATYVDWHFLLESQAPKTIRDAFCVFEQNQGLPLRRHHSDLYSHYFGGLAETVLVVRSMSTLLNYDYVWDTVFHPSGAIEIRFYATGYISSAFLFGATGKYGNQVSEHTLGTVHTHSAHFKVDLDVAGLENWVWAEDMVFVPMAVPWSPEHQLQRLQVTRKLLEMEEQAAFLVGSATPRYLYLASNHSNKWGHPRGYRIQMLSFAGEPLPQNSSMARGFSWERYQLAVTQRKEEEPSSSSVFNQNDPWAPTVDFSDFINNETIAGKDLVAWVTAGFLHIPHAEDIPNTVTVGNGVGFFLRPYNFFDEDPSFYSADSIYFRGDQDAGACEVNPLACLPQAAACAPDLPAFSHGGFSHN
Experimental: A time-resolved immunofluorometric assay was used quantitatively to examine the binding of 5F12, 4B3, 3F10, 8A4 and 8C10 to rhVAP-1. A microtiter plate was coated with rhVAP-1 and then blocked with bovine serum albumin solution. An amount of antibody between 2 and 4320 ng/ml was subsequently added to bind to rhVAP-1 and the bound antibody detected by a europium-conjugated mouse anti-human antibody (Perkin Elmer Inc.). The label was detected by measuring the time-resolved fluorescence (VICTOR³™ multilabel counter, PerkinElmer Inc.) at 615 nm. The fluorescence counts directly correlate with how much antibody was bound to its target. The sample data were then analyzed in comparison to the standard curve of a reference.

[2] = target: T1, recombinant human Vascular Adhesion …; assay: as above; remark: listed apart in the source
Experimental: A microtiter plate was coated with rhVAP-1 and then blocked with bovine serum albumin solution. […] The label was detected by measuring the time-resolved fluorescence (VICTOR³™ multilabel counter, PerkinElmer Inc.) at 615 nm. […] The sample data were then analyzed in comparison to the standard curve of a reference.

[3] = target: T1, recombinant human Vascular Adhesion …; assay: Biacore SPR, BTT-1023 captured on biotinylated protein G' on a streptavidin chip, rhVAP-1 as analyte
Experimental: Constant amounts of rhVAP-1 were used as an analyte for saturating concentration of mAbs (ligands). Experiments were performed using BIALITE® equipment (BIACORE® AB) and the data analyzed using Biacore software.

B1: fully human anti-VAP-1 monoclonal antibody 5F12 (hybridoma-derived) (antibody, V domains shown)
VH: QVQLVDSGGDVVQPGRSLRLSCAASGFSFSRSGIHWVRQAPGKGLEWVAVIWYDGIYKYYADSVKGRFTISRDNSKNTLYLQMNSLRAEDTAVYYCAREKNWGIDYWGQGTLVTVSS
VL: DIQMTQSPSSLSASVGDRVTITCRASQGISSWLAWYQQKPEKAPKSLIYGASSLQSGVPSRFSGSGSGTDFTLTISSLQPEDFATYYCQQYNSYPRTFGQGTKVEIK
Kd [1]: 0.65 nM

B2: fully human anti-VAP-1 monoclonal antibody 8C10 (hybridoma-derived) (antibody, human IgG1, V domains shown)
VH: QVQLVESGGGVVQPGRSLRLSCAASGFTFFSYAMHWVRQTPGKGLEWVAVIWFDGSNENYVDSVKGRFTISRDNSKNTLYLQMNTLRAEDTAVYYCARDAWSYFDYWGQGTLVTVSS
VL: VIQLTQSPSSLSASVGDRVTITCRASQGISRALAWYQQKPGKGPKLLIYDASSLESGVPSRFSGSGSGTDFTLTISSLQPEDFATYYCQQFNSYPLTFGGGTKVEIK
Kd [1]: 0.21 nM

B3: recombinant fully human anti-VAP-1 antibody r8C10 (BTT-1023) (antibody, human IgG4 S228P, kappa, V domains shown)
VH: B2 VH
VL: VIQLTQSPSSLSASVGDRVTITCRASQGISRALAWYQQKPGKGPKLLIYDASSLESGVPSRFSGSGSGTDFTLTISSLQPEDFATYYCQQFNSYPLTFGGGTKVEIKR
notes: also called recombinant 8C10
Kd [2]: 0.38 nM
Kd [3]: 0.13 nM

B4: fully human anti-VAP-1 monoclonal antibody 3F10 (hybridoma-derived) (antibody, human IgG1, V domains shown)
VH: B2 VH with F30S, T40A, I51L, N59D, V61A, T85S, A100G, S102G
VL: B2 VL with V1A, G43A, S53N, S56R, Y94F
Kd [1]: 0.25 nM

B5: fully human anti-VAP-1 monoclonal antibody 8A4 (hybridoma-derived) (antibody, human IgG1, V domains shown)
VH: EVQLVESGGGLVQPGGSLRLSCAASGFIFSNYWMSWVRQAPGKGLEWVANIKQDGSEKYYVDSVRGRFTVSRDNAKNSLYLQMNSLRAEDTAVYYCARDYFGSGTYFFYFDYWGQGTLVTFSS
VL: EIVLTQSPATLSLSPGERATLSCRASQSVSSYLAWYQQKPGQAPRLLIYDASNRATGIPARFSGSGSGTDFTLTISSLEPEDFAVYYCQQRSNWPLTFGGGTKVEIK
Kd [1]: 0.28 nM

B6: fully human anti-VAP-1 monoclonal antibody 4B3 (hybridoma-derived) (antibody, human IgG1, V domains shown)
VH: EVQLVQSGGGLVHPGGSLRLSCAGSGFPVSSYGMHWVRQAPGKGLEWVSAIGVGGGTYHVDSVKGRFTISRDNAKNSLYLQMNSLRAGDMAVYYCARDPGFGEVYFDYWGQGTLVTVSS
VL: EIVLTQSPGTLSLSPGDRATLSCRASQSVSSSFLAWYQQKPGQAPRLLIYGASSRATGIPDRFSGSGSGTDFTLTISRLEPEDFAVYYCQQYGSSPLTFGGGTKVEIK
Kd [1]: 0.31 nM
